These results are taken from publication PMC9458691.

What all share (assay): native gel or EMSA; Blue Native PAGE, gradient from 3.5 to 16% polyacrylamide, of the IEC fractions of affinity purified PSII
(In EMSA bound probe runs differently from free probe, usually more slowly.)

For experiment [1], the target named is PSII with the protein composition of mature PSII, isolated via His-tagged CP43 (T. elongatus (endogenous in T. elongatus) | Thermosynechococcus elongatus) (UniProt P0A444).
The target of experiment [2] is Psb27-PSII complex isolated via His-tagged CP43 (PSII with Psb27, without the extrinsic subunits) (T. elongatus (endogenous in T. elongatus) | Thermosynechococcus elongatus) (UniProt P0A444).
Experiment [3] deals with Psb27-PSII complex isolated via CP43-TS-Tag (PSII with Psb27, without the extrinsic subunits) (T. elongatus (endogenous in T. elongatus BP-1) | Thermosynechococcus elongatus BP-1) (UniProt P0A444).
Experiment [4] addresses PSII with the protein composition of mature PSII, isolated via CP43-TS-Tag (T. elongatus (endogenous in T. elongatus BP-1) | Thermosynechococcus elongatus BP-1) (UniProt P0A444).

As usually defined, the stoichiometry N is the number of molecules, sites or subunits per partner or assembly. In turn, “PSII with the protein composition of mature PSII, isolated via His-tagged CP43 (from UniProt P0A444 1-344; Q8CM25 1-352; Q8DIF8 1-461; Q8DIQ1 1-510; P0A431 27-272; Q9F1L5 31-134; P0A386 27-163) (complex)” had a stoichiometry N in experiment [1] of 2. In the case of “Psb27-PSII complex isolated via His-tagged CP43 (PSII with Psb27, without the extrinsic subunits) (from UniProt P0A444 1-344; Q8CM25 1-352; Q8DIF8 1-461; Q8DIQ1 1-510; Q8DG60 22-134)”, the stoichiometry N in experiment [2] worked out at 2. Substance “Psb27-PSII complex isolated via CP43-TS-Tag (PSII with Psb27, without the extrinsic subunits) (from UniProt P0A444 1-344; Q8CM25 1-352; Q8DIF8 1-461; Q8DIQ1 1-510; Q8DG60 22-134)” displayed a stoichiometry N in experiment [3] of 2. In experiment [4], “PSII with the protein composition of mature PSII, isolated via CP43-TS-Tag (from UniProt P0A444 1-344; Q8CM25 1-352; Q8DIF8 1-461; Q8DIQ1 1-510; P0A431 27-272; Q9F1L5 31-134; P0A386 27-163) (complex)” displayed a stoichiometry N of 2.
